Results on 1 molecule are retold here after publication PMC4967042.

Targets include RECQ1-C453A (human, UniProt P46063 1-649, C453A); RECQ1-C478A (human, UniProt P46063 1-649, C478A); RECQ1-C475A (human, UniProt P46063 1-649, C475A).
What all share (experiment): MST

Chain of RECQ1-C478A (P46063 whole entry C478A): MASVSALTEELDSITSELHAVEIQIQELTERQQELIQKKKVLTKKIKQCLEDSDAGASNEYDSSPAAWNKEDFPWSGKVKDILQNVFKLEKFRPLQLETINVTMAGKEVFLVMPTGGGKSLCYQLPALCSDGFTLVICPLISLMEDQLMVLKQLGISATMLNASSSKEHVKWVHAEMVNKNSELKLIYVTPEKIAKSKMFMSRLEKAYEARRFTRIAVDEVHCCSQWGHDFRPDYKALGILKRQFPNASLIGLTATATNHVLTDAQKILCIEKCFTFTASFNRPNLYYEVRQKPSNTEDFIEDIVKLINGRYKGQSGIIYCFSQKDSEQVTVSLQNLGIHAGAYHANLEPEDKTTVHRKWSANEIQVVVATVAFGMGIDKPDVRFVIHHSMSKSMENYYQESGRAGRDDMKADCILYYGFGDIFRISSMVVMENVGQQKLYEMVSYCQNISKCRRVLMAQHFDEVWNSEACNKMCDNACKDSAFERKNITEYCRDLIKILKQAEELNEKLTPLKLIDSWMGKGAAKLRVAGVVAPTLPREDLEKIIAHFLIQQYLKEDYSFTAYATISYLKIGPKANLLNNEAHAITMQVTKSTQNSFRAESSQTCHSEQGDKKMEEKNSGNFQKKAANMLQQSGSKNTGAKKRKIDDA
Chain of RECQ1-C453A (P46063 whole entry C453A): as the sequence (P46063 whole entry C478A) above, with C453A, A478C counted along it
Chain of RECQ1-C475A (P46063 whole entry C475A): as the sequence (P46063 whole entry C478A) above, with C475A, A478C counted along it

B1: forked duplex T44/FLAP26 (dsDNA)
DNA 1: GCACTGGCCGTCGTTTTACGGTCGTGACTGGGAAAACCCTGGCG
DNA 2: TTTTTTTTTTTTTTTTTTTTTTCCAAGTAAAACGACGGCCAGTGC
On to B1, for which the Kd amounted to 276 nM with RECQ1-C453A, 602 nM in the series with RECQ1-C478A and 473 nM with RECQ1-C475A.
